Measurements taken from article PMC10033377 (Nature structural & molecular biology, 2023).

Assays:
SEC = target: the molecule itself; assay: SEC
negative stain EM = target: the molecule itself; assay: negative stain EM

Protein | binding result (SEC) | binding result (negative stain EM)
PRPS1-D52H (enzyme, human) MPNIKIFSGSSHQDLSQKIADRLGLELGKVVTKKFSNQETCVEIGESVRGEHVYIVQSGCGEINDNLMELLIMINACKIASASRVTAVIPCFPYARQDKKDKSRAPISAKLVANMLSVAGADHIITMDLHASQIQGFFDIPVDNLYAEPAVLKWIRENISEWRNCTIVSPDAGGAKRVTSIADRLNVDFALIHKERKKANEVDRMVLVGDVKDRVAILVDDMADTCGTICHAADKLLSAGATRVYAILTHGIFSGPAISRINNACFEAVVVTNTIPQEDKMKHCSKIQVIDISMILAEAIRRTHNGESVSYLFSHVPL | binds | 
PRPS1-S16P (enzyme, human) MPNIKIFSGSSHQDLPQKIADRLGLELGKVVTKKFSNQETCVEIGESVRGEDVYIVQSGCGEINDNLMELLIMINACKIASASRVTAVIPCFPYARQDKKDKSRAPISAKLVANMLSVAGADHIITMDLHASQIQGFFDIPVDNLYAEPAVLKWIRENISEWRNCTIVSPDAGGAKRVTSIADRLNVDFALIHKERKKANEVDRMVLVGDVKDRVAILVDDMADTCGTICHAADKLLSAGATRVYAILTHGIFSGPAISRINNACFEAVVVTNTIPQEDKMKHCSKIQVIDISMILAEAIRRTHNGESVSYLFSHVPL |  | binds
PRPS1-I290T (enzyme, human) MPNIKIFSGSSHQDLSQKIADRLGLELGKVVTKKFSNQETCVEIGESVRGEDVYIVQSGCGEINDNLMELLIMINACKIASASRVTAVIPCFPYARQDKKDKSRAPISAKLVANMLSVAGADHIITMDLHASQIQGFFDIPVDNLYAEPAVLKWIRENISEWRNCTIVSPDAGGAKRVTSIADRLNVDFALIHKERKKANEVDRMVLVGDVKDRVAILVDDMADTCGTICHAADKLLSAGATRVYAILTHGIFSGPAISRINNACFEAVVVTNTIPQEDKMKHCSKIQVTDISMILAEAIRRTHNGESVSYLFSHVPL |  | binds
PRPS1-V309F (enzyme, human) MPNIKIFSGSSHQDLSQKIADRLGLELGKVVTKKFSNQETCVEIGESVRGEDVYIVQSGCGEINDNLMELLIMINACKIASASRVTAVIPCFPYARQDKKDKSRAPISAKLVANMLSVAGADHIITMDLHASQIQGFFDIPVDNLYAEPAVLKWIRENISEWRNCTIVSPDAGGAKRVTSIADRLNVDFALIHKERKKANEVDRMVLVGDVKDRVAILVDDMADTCGTICHAADKLLSAGATRVYAILTHGIFSGPAISRINNACFEAVVVTNTIPQEDKMKHCSKIQVIDISMILAEAIRRTHNGESFSYLFSHVPL |  | binds
